In the Human Domainome abundance scans (Beltran et al. 2025):
± gives the uncertainty stated by the source.

B1: Pituitary-specific positive transcription factor 1, residues 130 to 198; numbered along this chain, P28069 (parent)
chain: RELEKFANEFKVRRIKLGYTQTNVGEALAAVHGSEFSQTTICRFENLQLSFKNACKLKAILSKWLEEAE

Variants of: B1
Assay: abundance fitness (aPCA) (normalised: wild type 0, dead -1); higher = more abundant; growth selection in yeast, the domain comes from the species named
Settings: Homo sapiens

Variant | abundance fitness
L17V | -0.785 ± 0.12
L17S | -0.738 ± 0.091
L17G | -0.889 ± 0.16
L17F | -0.588 ± 0.094
L17T | -0.941 ± 0.25
A68C | -0.752 ± 0.22
A68K | 0.047 ± 0.15
A68N | -0.24 ± 0.077
A68T | -0.05 ± 0.13
L47C | 0.155 ± 0.15
L47R | -0.065 ± 0.066
L47I | -0.866 ± 0.34
L47V | -0.888 ± 0.19
R13E | -0.976 ± 0.3
R13W | -0.733 ± 0.22
R13L | -0.913 ± 0.35
R14G | -0.8 ± 0.17
R14V | -0.712 ± 0.2
R14C | -0.79 ± 0.32
E2I | -0.676 ± 0.15
E2V | -0.895 ± 0.18
E2G | -0.373 ± 0.072
E2K | -0.471 ± 0.24
E2C | -0.984 ± 0.32

Variant | abundance fitness
E2Y | -0.651 ± 0.27
E2H | -0.968 ± 0.39
E2T | -0.334 ± 0.12
W64Q | -0.643 ± 0.14
W64G | -0.568 ± 0.077
W64R | -0.79 ± 0.14
W64F | -0.398 ± 0.11
W64N | -0.475 ± 0.28
W64K | -0.461 ± 0.16
T20P | -0.942 ± 0.3
T20E | -0.536 ± 0.22
T20S | -0.044 ± 0.056
G33F | -0.934 ± 0.47
G33I | -1 ± 0.26
G33K | -0.85 ± 0.28
G33R | -0.835 ± 0.098
G33A | -0.555 ± 0.074
G33E | -0.856 ± 0.16
Q48I | -0.758 ± 0.23
Q48L | -0.406 ± 0.065
Q48M | -0.505 ± 0.27
Q48G | -0.673 ± 0.088
Q48C | -0.586 ± 0.12
Q48A | -0.629 ± 0.16

Variant | abundance fitness
Q48F | -0.889 ± 0.4
Q48S | -0.389 ± 0.094
Q48D | -0.055 ± 0.066
Q48W | -0.915 ± 0.36
S34K | 0.09 ± 0.066
S34Y | -0.373 ± 0.086
S34R | -0.038 ± 0.093
S34N | 0.107 ± 0.15
S34L | -0.253 ± 0.057
S34A | -0.079 ± 0.11
T40C | -0.512 ± 0.22
T40H | -0.403 ± 0.13
T40W | -0.624 ± 0.11
T40E | -0.193 ± 0.21
T40A | -0.235 ± 0.081
N46G | -0.311 ± 0.094
N46S | -0.085 ± 0.089
N46W | -0.851 ± 0.2
N46V | -0.661 ± 0.31
N46M | -0.492 ± 0.12
I15M | 0.014 ± 0.058
I15N | -0.546 ± 0.31
I15Q | 0.042 ± 0.063
I15G | -0.404 ± 0.087

Variant | abundance fitness
I15E | -0.014 ± 0.11
T39C | -1.07 ± 0.43
T39V | -0.113 ± 0.059
T39Q | 0.13 ± 0.11
T39I | -0.312 ± 0.1
T39R | -0.096 ± 0.064
G18L | -0.62 ± 0.1
G18Y | -0.825 ± 0.28
S50M | -0.766 ± 0.23
S50R | -0.348 ± 0.059
S50Q | -0.533 ± 0.3
S50I | -0.378 ± 0.36
S50H | -0.168 ± 0.14
S50N | 0.022 ± 0.092
S50K | -0.182 ± 0.2
S50V | -0.877 ± 0.15
S50F | -0.724 ± 0.31
S50W | -0.126 ± 0.092
S50C | -0.459 ± 0.12
K11V | -0.694 ± 0.15
K11D | -1.02 ± 0.43
K11M | -0.546 ± 0.16
K11E | -0.786 ± 0.15
K11G | -0.6 ± 0.11

Variant | abundance fitness
K11S | -0.65 ± 0.14
T22Q | 0.209 ± 0.1
T22V | -0.328 ± 0.11
K58W | -0.342 ± 0.11
K58A | -0.473 ± 0.07
K58H | -0.4 ± 0.14
K58G | -0.652 ± 0.095
K58F | -0.933 ± 0.26
K58R | -0.184 ± 0.067
K58N | -0.619 ± 0.11
E26F | -0.849 ± 0.29
E26A | -0.332 ± 0.49
E26G | -0.771 ± 0.29
E26C | -0.476 ± 0.21
S37Y | -0.508 ± 0.11
S37R | -0.743 ± 0.066
S37F | -0.901 ± 0.15
S37Q | -0.736 ± 0.14
R1N | -0.37 ± 0.17
R1D | -0.187 ± 0.099
I41Q | -0.785 ± 0.33
I41K | -0.842 ± 0.33
I41P | -0.897 ± 0.35
I41D | -0.758 ± 0.37

Variant | abundance fitness
L65D | -0.85 ± 0.19
L65W | -0.719 ± 0.12
L65H | -0.887 ± 0.32
L65N | -0.955 ± 0.21
L65A | -0.772 ± 0.1
K63Y | -0.508 ± 0.16
K63T | 0.022 ± 0.047
K63D | 0.112 ± 0.077
K63F | -0.799 ± 0.16
K63C | -0.443 ± 0.098
K63R | -0.152 ± 0.055
K63V | -0.155 ± 0.072
K63L | -0.3 ± 0.06
E45W | -0.762 ± 0.12
E45H | -1.17 ± 0.32
E45Y | -0.993 ± 0.31
A27Q | 0.016 ± 0.093
A27P | -0.868 ± 0.23
A27G | -0.739 ± 0.23
A27L | -0.315 ± 0.077
A27S | -0.106 ± 0.051
A27Y | -0.144 ± 0.08
L57G | -0.507 ± 0.061
L57A | -0.449 ± 0.064

Variant | abundance fitness
L57D | -0.67 ± 0.1
L57E | -0.345 ± 0.12
L57M | 0.285 ± 0.11
L57H | -0.226 ± 0.11
L57T | -0.262 ± 0.064
E9D | 0.031 ± 0.074
E9Y | -0.72 ± 0.16
E9L | -0.246 ± 0.1
E9S | -0.213 ± 0.082
E9R | -0.645 ± 0.16
F10T | -0.915 ± 0.28
F10V | -0.649 ± 0.12
K16V | -0.812 ± 0.18
K16D | -0.665 ± 0.21
K16S | -0.365 ± 0.078
K16N | -0.122 ± 0.076
E4K | -0.084 ± 0.08
E4Q | -0.245 ± 0.27
Y19C | -0.562 ± 0.15
Y19W | -0.283 ± 0.16
Y19S | -0.696 ± 0.23
K5I | -0.079 ± 0.054
K5V | -0.278 ± 0.041
